Molecular target: T1, endogenous p75^NTR in 3T3L1 adipocytes (mouse, UniProt Q9Z0W1 32-427)
T1 construct: whole, on cells
T1 sequence (looked up): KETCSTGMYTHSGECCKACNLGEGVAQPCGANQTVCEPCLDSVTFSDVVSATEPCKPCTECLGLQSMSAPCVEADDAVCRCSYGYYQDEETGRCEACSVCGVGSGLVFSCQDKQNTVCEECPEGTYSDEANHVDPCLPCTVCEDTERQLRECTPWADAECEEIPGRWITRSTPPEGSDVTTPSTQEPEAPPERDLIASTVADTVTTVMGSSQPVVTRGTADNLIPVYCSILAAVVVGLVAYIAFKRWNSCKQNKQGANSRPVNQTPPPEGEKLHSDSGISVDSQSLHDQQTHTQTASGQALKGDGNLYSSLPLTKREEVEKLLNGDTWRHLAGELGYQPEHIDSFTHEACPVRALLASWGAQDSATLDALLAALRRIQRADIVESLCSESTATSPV
Test: endogenous co-IP from 3T3L1 adipocytes (anti-p75NTR IP, anti-Rab31 blot)
Description: Briefly, cell lysates were prepared in 1% Nonidet P-40 (NP-40; non-ionic detergent), 200 mM NaCl, 1 mM EDTA, and 20 mM Tris-HCl, pH 8.0. Immunoprecipitations (IPs) were performed with an anti-p75^NTR antibody and immunoblot with anti-Rab31 and anti-p75^NTR.
(C) Immunoprecipitation of p75^NTR with Rab31 and Rab5 in 3T3L1 adipocytes stimulated with insulin. Lysates were immunoprecipitated with anti-p75^NTR antibody, and western blots were developed with anti-Rab31 and anti-Rab5 antibodies.

B1: endogenous Rab31 in 3T3L1 adipocytes (enzyme, UniProt Q921E2 1-195, looked up)
chain: MMAIRELKVCLLGDTGVGKSSIVCRFVQDHFDHNISPTIGASFMTKTVPCGNELHKFLIWDTAGQERFHSLAPMYYRGSAAAVIVYDITKQDSFHTLKKWVKELKEHGPENIVMAIAGNKCDLSDIREVPLKDAKEYAESIGAIVVETSAKNAINIEELFQGISRQIPPLGPQENGNSGGIKLGNQSLQASRRCC
- binding result: binds
